In experiment [1] the test system is IκB-α. Put plainly: Immunoblot of nuclear IκB-α in transfected 293 cells. The experiment is classed as cell-based, human. The conditions noted are these: transfected cells stimulated with TNF-α, vs PRMT2-N. How it is done: Small-scale preparation of nuclear extracts. A modified Dignam procedure (Dignam et al., Nucleic Acids Res. 11: 1475-89 (1983)) was used to prepare nuclear extracts from 293 cells. Cells were harvested, washed with PBS, resuspended in 1 ml Dignam buffer A, and transferred to pre-chilled microfuge tubes, which were spun at 1000 rpm for 1 minute. The supernatant was aspirated thoroughly, and pellets were carefully resuspended to avoid frothing, in 60 μl modified Dignam buffer A containing 0.1% Nonidet P-40 (NP40). Samples were incubated at 4° C. for approximately 10 minutes, and microcentrifuged for 10 minutes at 4° C. The cytoplasmic extract supernatant was diluted in 3 volumes of modified Dignam buffer D and frozen quickly. The pellets were resuspended in 40 μl Dignam buffer C. Samples were incubated for 15 minutes at 4° C. on a tumbler, and centrifuged again for 5 minutes at 4° C. The supernatant was diluted with 6 volumes of modified Dignam buffer D. Samples were frozen quickly in aliquots and stored at −70° C.
Western Blotting. Proteins resolved by SDS-polyacrylamide gel electrophoresis (PAGE) were transferred to polyvinylidene difluoride (PVDF) membranes. […]
On the technique in general: A western blot detects proteins with antibodies after separation by electrophoresis.

The subject of experiment [2] is E2F1. Put plainly: E2F reporter assay (GAL4-E2F1 activator, luciferase). It is filed as cell-based. On the procedure: HeLa cells, U2OS cells, and Saos2 cells were seeded at a density of 5×10^4 per well in 24-well plates. Cells were transfected 24 hours later with the indicated plasmid and with 20 ng of pRL-TK (Promega) as an internal control to normalize transfection efficiency. The amount of CMV promoter in the transfection was kept constant using empty vector. Cells were harvested at 30 or 36 hour after transfection and luciferase activity was analyzed by Dual-Luciferase Reporter Assay System (Promega). Luciferase activity was measured as a ratio of Firefly to Renilla. To study endogenous E2F activity in MEFs, PRMT-2^+/+ or PRMT-2^−/− MEFs were seeded at a density of 3×10^5 per well in 6-well plates. Cells were transfected 24 hours later with 3 μg of E2F4B-Luc and 10 ng of pRL-TK plasmid. Cells were harvested at 36 hour after transfection and analyzed for luciferase activity as described above.
(Reporter assays use an easily measured gene product as a stand-in for the process of interest.)

Experiment [3] deals with NF-κB. In words: NF-κB luciferase reporter assay in 293T cells. The experiment is classed as cell-based, human. How it is done:
Cell culture, transfection, and reporter gene assays. The E1A-transformed, human kidney cell line, 293, and NIH-3T3 cells were maintained in Dulbecco's Modified Eagle Medium (DMEM) supplemented with 10% fetal calf serum and penicillin-streptomycin at 37° C. in 5% carbon dioxide in tissue culture grade Petri dishes. PRMT-2−/− mouse embryo fibroblasts (MEFs) and wild type MEFs were prepared from day 13.5 embryos and maintained in DMEM supplemented with 10% fetal calf serum. MEFs at passage 4 were used in this experiment. Lipofectamine Plus™ reagent (Boehringer Mannheim) was used to transfect both 293 and NIH-3T3 cells according to directions from the manufacturer. […] TNF-α stimulation of cells was done using recombinant TNF-α (200 U/ml) for 12 hours. […] CAT assays were performed essentially as described in Leung, K. & Nabel, G. J. Nature 333, 776-778 (1988). To analyze the κB-reporter activity in MEFs, cells were transfected with the reporter (2×kB-Luc) and PRL-TK vector (Promega) using FuGENE6 transfection reagent (Roche). Luciferase activity was analyzed by Dual-Luciferase Reporter Assay System (Promega).
To map the domains responsible for inhibition of HIV transcription, truncation and point mutations were made in PRMT2 (FIG. 1D) and co-transfected with an NF-κB reporter in 293T cells. PRMT2-A represents an alternatively spliced form of PRMT2 found in the expressed sequence tag (EST) database. This isoform contains the first 218 amino acids of PRMT2 and differs from full length PRMT2 by the absence of the less conserved COOH-terminal domain. PRMT2-N was generated by introducing a stop codon after amino acid 95 before the putative Ado-Met domain of PRMT2. To analyze the role of the Ado-Met domain further, another mutant, PRMT2-4A, was prepared in which 141ILDV144 (SEQ ID NO:5) in this region were altered to four consecutive alanines to compare the effects of point mutations in this highly conserved region.
The mechanism and site of action of PRMT2 in the NF-κB signaling pathway was further defined by co-transfection of PRMT2 and its mutants with different regulators in this pathway with an NF-κB reporter in 293T cells (FIG. 2D).

Experiment [4] deals with 293 cells. In words: TNF-α-induced apoptosis in transfected 293 cells. The experiment is classed as cell-based, human. As to conditions: TNF-α 1000 U/ml 24 hours. How it is done:
Apoptosis analysis. Apoptosis in PRMT-2-expressing 293 cells was analyzed as follows. Cells were seeded at 2.5×10^5 per well in 6 well plates. The next day, empty vector, mutant IκBα (S32A/S36A), RelA or PRMT-2 was co-transfected with CD2 expression vector. Twenty-four hours after transfection cells were stimulated with TNF-α (1000 U/ml) for 24 hours. Both floating and attached cells in each well were harvested by EDTA treatment. Cells were stained with APC-labeled anti-CD2 antibody (BD Bioscience) in SM buffer (PBS containing 2% FCS). After washing twice with PBS, cells were stained with FITC-labeled Annexin V and propidium iodide using Annexin V FITC Apoptosis Detection Kit (Oncogene), and analyzed by flow cytometry (FACS Caliber, BD Bioscience).

B1: PRMT2: human PRMT-2 polypeptide, SEQ ID NO:2, expressed from pVR1012 vector with HA-tag (protein, listed as Homo sapiens)
chain: MATSGDCPRSESQGEEPAECSEAGLLQEGVQPEEFVAIADYAATDETQLSFLRGEKILILRQTTADWWWGERAGCCGYIPANHVGKHVDEYDPEDTWQDEEYFGSYGTLKLHLEMLADQPRTTKYHSVILQNKESLTDKVILDVGCGTGIISLFCAHYARPRAVYAVEASEMAQHTGQLVLQNGFADIITVYQQKVEDVVLPEKVDVLVSEWMGTCLLFEFMIESILYARDAWLKEDGVIWPTMAALHLVPCSADKDYRSKVLFWDNAYEFNLSALKSLAVKEFFSKPKYNHILKPEDCLSEPCTILQLDMRTVQISDLETLRGELRFDIRKAGTLHGFTAWFSVHFQSLQEGQPPQVLSTGPFHPTTHWKQTLFMMDDPVPVHTGDVVTGSVVLQRNPVWRRHMSVALSWAVTSRQDPTSQKVGEKVFPIWR
modifications: HA tag
For the molecule B1, the “increase in nuclear IκB-α protein levels over the mutant control” value in experiment [1] is listed as about 8 fold. Further, the E2F1-induced promoter activity result in experiment [2] (HeLa cells, in the presence of the E2F1 activator) is given as “repressed E2F1-induced promoter activity in a dose-dependent manner”. In experiment [2] (Saos 2 cells (RB-deficient), without RB), the E2F1 activity entry is recorded as “did not repress E2F1 activity”. Also, the E2F repression result in experiment [2] (Saos 2 cells co-transfected with RB) was “E2F repression by PRMT2 in a dose-dependent manner was observed”. For the same molecule, in experiment [3] (1 μg expression construct, 100 ng 5 κB luciferase reporter), the NF-κB activity result is on record as “inhibited NF-κB activity”. The “IKK2- and p65-induced NF-κB activity” value in experiment [3] (κB luciferase reporter, 48 hrs) is “inhibited both IKK2- and p65-induced NF-κB activity”. Further, the “susceptibility to TNF-induced cell death” value in experiment [4] was “increased their susceptibility to TNF-induced cell death”.

(Values after patent US20060239990A1, “Protein Arginine N-Methyltransferase 2 (PRMT-2)” (priority 2003, published 2006).)
